Assay results: the supplement of paper PMC9112550, “Optimization of the antimicrobial peptide Bac7 by deep mutational scanning” (BMC Biology, 2022)

Tested on: Escherichia coli TOP10
Experiment: shrunken log2 fold change of peptide-encoding DNA abundance (4.5 h post-induction vs induction); higher = less antimicrobial activity (less host growth inhibition)
Details: time post-induction: 4.5 h; library: site-saturation at positions 5, 18, 19, 20
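Note: peptides expressed intracellularly from a pBAD plasmid library in pooled LB shake-flask culture, induced with 0.3% L-arabinose, DNA abundance read by NGS, three biological replicates, DESeq2 with apeglm shrinkage.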

| Sequence | shrunken log2 fold change |
| --- | --- |
| RRIRSRPPRLPRPRPRPYRMPRP | -0.0162 |
| RRIRSRPPRLPRPRPRPYTVPRP | -0.676 |
| RRIRSRPPRLPRPRPRPYTWPRP | -0.989 |
| RRIRSRPPRLPRPRPRPYWFPRP | -0.624 |
| RRIRSRPPRLPRPRPRPYWPPRP | -0.642 |
| RRIRSRPPRLPRPRPRPYWWPRP | -0.231 |
| RRIRSRPPRLPRPRPRPYYDPRP | -0.214 |
| RRIRSRPPRLPRPRPRPYYHPRP | -0.44 |
| RRIRTRPPRLPRPRPRPAAHPRP | 0.199 |
| RRIRTRPPRLPRPRPRPAAIPRP | 0.163 |
| RRIRTRPPRLPRPRPRPAANPRP | 0.0922 |
| RRIRTRPPRLPRPRPRPADFPRP | 0.0361 |
| RRIRTRPPRLPRPRPRPADSPRP | 0.0603 |
| RRIRTRPPRLPRPRPRPAGCPRP | 0.316 |
| RRIRTRPPRLPRPRPRPAHFPRP | 0.13 |
| RRIRTRPPRLPRPRPRPALFPRP | 0.000901 |
| RRIRTRPPRLPRPRPRPALHPRP | -0.19 |
| RRIRTRPPRLPRPRPRPAMNPRP | -0.405 |
| RRIRTRPPRLPRPRPRPAPVPRP | 0.0626 |
| RRIRTRPPRLPRPRPRPAQIPRP | 0.358 |
| RRIRTRPPRLPRPRPRPAQWPRP | 0.0699 |
| RRIRTRPPRLPRPRPRPARDPRP | 0.146 |
| RRIRTRPPRLPRPRPRPARWPRP | 0.471 |
| RRIRTRPPRLPRPRPRPASFPRP | 0.133 |
| RRIRTRPPRLPRPRPRPASTPRP | -0.0927 |

| Sequence | shrunken log2 fold change |
| --- | --- |
| RRIRTRPPRLPRPRPRPAVIPRP | 0.0431 |
| RRIRTRPPRLPRPRPRPAVNPRP | 0.000461 |
| RRIRTRPPRLPRPRPRPAVVPRP | 0.0328 |
| RRIRTRPPRLPRPRPRPAWPPRP | 0.444 |
| RRIRTRPPRLPRPRPRPAYDPRP | -0.251 |
| RRIRTRPPRLPRPRPRPAYIPRP | 0.412 |
| RRIRTRPPRLPRPRPRPCACPRP | 0.0169 |
| RRIRTRPPRLPRPRPRPCASPRP | 0.184 |
| RRIRTRPPRLPRPRPRPCCKPRP | -0.279 |
| RRIRTRPPRLPRPRPRPCDCPRP | -0.0712 |
| RRIRTRPPRLPRPRPRPCEEPRP | 0.0871 |
| RRIRTRPPRLPRPRPRPCEPPRP | -0.0796 |
| RRIRTRPPRLPRPRPRPCFQPRP | -0.232 |
| RRIRTRPPRLPRPRPRPCGIPRP | 0.0859 |
| RRIRTRPPRLPRPRPRPCGLPRP | 0.165 |
| RRIRTRPPRLPRPRPRPCGYPRP | -0.0816 |
| RRIRTRPPRLPRPRPRPCICPRP | -0.119 |
| RRIRTRPPRLPRPRPRPCLSPRP | 0.079 |
| RRIRTRPPRLPRPRPRPCMQPRP | 1.86 |
| RRIRTRPPRLPRPRPRPCMWPRP | 0.0746 |
| RRIRTRPPRLPRPRPRPCNVPRP | -0.00968 |
| RRIRTRPPRLPRPRPRPCPSPRP | -0.0705 |
| RRIRTRPPRLPRPRPRPCPYPRP | -0.411 |
| RRIRTRPPRLPRPRPRPCQDPRP | -0.13 |
| RRIRTRPPRLPRPRPRPCQWPRP | -0.107 |

| Sequence | shrunken log2 fold change |
| --- | --- |
| RRIRTRPPRLPRPRPRPCSPPRP | -0.0356 |
| RRIRTRPPRLPRPRPRPCTGPRP | -0.0103 |
| RRIRTRPPRLPRPRPRPCVAPRP | 0.192 |
| RRIRTRPPRLPRPRPRPCVNPRP | -0.0913 |
| RRIRTRPPRLPRPRPRPCVPPRP | -0.109 |
| RRIRTRPPRLPRPRPRPCWKPRP | -0.0202 |
| RRIRTRPPRLPRPRPRPDARPRP | 0.0965 |
| RRIRTRPPRLPRPRPRPDATPRP | 0.823 |
| RRIRTRPPRLPRPRPRPDCDPRP | 0.209 |
| RRIRTRPPRLPRPRPRPDCFPRP | -0.138 |
| RRIRTRPPRLPRPRPRPDDCPRP | -0.0459 |
| RRIRTRPPRLPRPRPRPDDRPRP | 0.0143 |
| RRIRTRPPRLPRPRPRPDDVPRP | -0.102 |
| RRIRTRPPRLPRPRPRPDFFPRP | 0.175 |
| RRIRTRPPRLPRPRPRPDGVPRP | -0.0136 |
| RRIRTRPPRLPRPRPRPDHAPRP | 0.283 |
| RRIRTRPPRLPRPRPRPDHLPRP | 0.0101 |
| RRIRTRPPRLPRPRPRPDIFPRP | -0.234 |
| RRIRTRPPRLPRPRPRPDITPRP | -0.236 |
| RRIRTRPPRLPRPRPRPDKWPRP | 0.0238 |
| RRIRTRPPRLPRPRPRPDLPPRP | 0.0603 |
| RRIRTRPPRLPRPRPRPDLWPRP | 0.27 |
| RRIRTRPPRLPRPRPRPDMAPRP | -0.0628 |
| RRIRTRPPRLPRPRPRPDNTPRP | -0.191 |
| RRIRTRPPRLPRPRPRPDNWPRP | -0.244 |
